Drawing on US20210145976A1, this text covers HSA for 39 molecules.

Sequences and labels used below:
B1: SEQ ID NO 155 (designed binder)
chain: MLPAPKNLVVSRVTEDSARLSWTAPDAAFDSFPITYRERSQYGEAIVLTVPGSERSYDLTGLKPGTEYVVPIEGVKGGRGSKPLSAIFTT
B2: SEQ ID NO 158 (designed binder)
chain: MLPAPKNLVVSRVTEDSARLSWTAPDAAFDSFIIDYLELDDYGEAIVLTVPGSERSYDLTGLKPGTEYPVYIYGVKGGLPSTPLSAIFTT
B3: SEQ ID NO 185 (designed binder)
chain: MLPAPKNLVVSRVTEDSARLSWTAPDAAFDSFEIDYDELAIYGEAIVLTVPGSERSYDLTGLKPGTEYGVMIIGVKGGLPSDPLSAIFTT
B4: SEQ ID NO 162 (designed binder)
chain: MLPAPKNLVVSRVTEDSARLSWTAPDAAFDSFHIAYEEATTYGEAIFLRVPGSERSYDLTGLKPGTEYDVWIEGVKGGTISGPLSAIFTT
B5: SEQ ID NO 183 (designed binder)
chain: MLPAPKNLVVSRVTEDSARLSWTAPDAAFDSFLIPYAETSPSGEAIVLTVPGSERSYDLTGLKPGTEYSVLIHGVKGGRPSNPLVAAFTT
B6: SEQ ID NO 153 (designed binder)
chain: MLPAPKNLVVSRVTEDSARLSWTAPDAALDSFRIAYTEYFVGGEAIVLTVPGSERSYDLTGLKPGTEYGVGIYGVKGGAGSSPLSAIFTT
B7: SEQ ID NO 41 (designed binder)
chain: MLPAPKNLVISRVTEDSARLSWTAPDAAFDSFFIYYIESYPAGEAIVLTVPGSERSYDLTGLKPGTEYWVGIDGVKGGRWSTPLSAIFTT
B8: SEQ ID NO 43 (designed binder)
chain: MLPAPKNLVVSRVTEDSARLSWTAPDAAFDSFYIEYYESYPGGEAIVLTVPGSERSYDLTGLKPGTEYDVYIYGVKGGYWSRPLSAIFTT
B9: SEQ ID NO 147 (designed binder)
chain: MLPAPKNLVVSRVTEDSARLSWTAPDAAFDSFFIGYLEPQPPGEAIVLTVPGSERSYDLTGLKPGTEYSVLIHGVKGGRNSDPLSAISTT
B10: SEQ ID NO 168 (designed binder)
chain: MLPAPKNLVVSRVTEDSARLSWTTPDAAFDSFFIGYLEPYPPGEAIVLTVPGSERSYDLTGLKPGTEYVVSIQGVKGGKPSDPLSAIFTT
B11: SEQ ID NO 172 (designed binder)
chain: MLPAPKNLVVSRVTEDSARLSWTAPDAAFDSFPIEYDEWWALGEAITLIVPASERSYDLTGLKPGTEYVVKIHGVKGGQRSYPLIAFFTT
B12: SEQ ID NO 180 (designed binder)
chain: MLPAPKNLVVSRVTEDSARLSWTAPDAAFDSFEISYYEMRGYGEAIVLTVPGSERSYDLTGLKPGTEYSVLIHGVEGGDYSSPLSAISTT
B13: SEQ ID NO 173 (designed binder)
chain: MLPAPKNLVVSRVTEDSARLSWTAPDAAFDSFTIHYRELYVQAIVLTVPGSERSYDLTGLKPGTEYLVMIPGVKGGPTSVPLSAIFTT
B14: SEQ ID NO 161 (designed binder)
chain: MLPAPKNLVVSRVTEDSARLSWTAPDAAFDSFTIRYWEELPTGEAIVLTVPGSERSYDLTGLKPGTEYTVEIFGVKGGYLSRPLSAISTT
B15: SEQ ID NO 171 (designed binder)
chain: MLPAPKNLVVSRVTEDSARLSWTAPDAAFDSFAIRYLEWWDVGEAIVLTVPGSERSYDLTGLKPGTEYLVEIKGVKGGKFSYPLSAIFTT
B16: SEQ ID NO 145 (designed binder)
chain: MLPAPKNLVVSRVTEDSARLSWTAPDAAFDSFFIPYAEPSPTGEAIVLTVPGSERSYDLTGLKPGTEYDVWIEGVKGGTLSWPLSAIFTT
B17: SEQ ID NO 182 (designed binder)
chain: MLPAPKNLVVSRVTEDSARLSWTAPDAAFDSFFIGYLEPYPPGEAIVLTVPGSERSYDLTGLKPGTEYVVSIQGVKGGTPSQPLSAIFTT
B18: SEQ ID NO 154 (designed binder)
chain: MLPAPKNLVVSRVTEDSARLSWTAPDAAFDSFFIPYAEPRPDGEAIVLTVPGSERSYDLTGLKPGTEYSVLIHGVKGGLLSSPLSAIFTT
B19: SEQ ID NO 175 (designed binder)
chain: MLPAPKNLVVSRVTEDSARLSWTAPDAAFDSFFIGYLEPQPPGEAIVLTVPGSERSYDLTGLKPGTEYSVVIQGVKGGFPSDPLSAIFTT
B20: SEQ ID NO 181 (designed binder)
chain: MLPAPKNLVVSHVTEDSARLSWTAPDAAFDSFPIAYAEPRPDGEAIVLTVPGSERSYDLTGLKPGTEYSVLIHGVKGGLLSSPLSAIFTT
B21: SEQ ID NO 146 (designed binder)
chain: MLPAPKNLVVSRVTEDSARLSWTAPDAAFDSFYIAYAEPRPDGEAIVLTVPGSERSYDLTGLKPGTEYSVLIHGVKGGLLSSPLSAIFTT
B22: SEQ ID NO 176 (designed binder)
chain: MLPAPKNLVVSRVTEDSARLSWTAPDAAFDSFPIAYAEPRPDGEAIVLTVPGSERSYDLTGLKPGTEYSVGIHGVKGGHDSSPLSAIFTT
B23: SEQ ID NO 159 (designed binder)
chain: MLPAPKNLVVSRVTEDSARLSWTAPDAAFDSFLIPYAETSPSGEAIVLTVPGSERSYDLTGLKPGTEYSVLIHGVKGGRNSDPLSAIFTT
B24: SEQ ID NO 166 (designed binder)
chain: MLPAPKNLVVSRVTEDSARLSWTAPDAAFDSFTILYNEIQNVGEAIVLTVPGSERSYDLTGLKPGTEYDVWIEGVKGGELSWPLSAIFTT
B25: SEQ ID NO 177 (designed binder)
chain: MLPAPKNLVVSRVTEDSARLSWTAPDAAFDSFFIGYLEPQPPGEAIVLTVPGSERSYDLTGLKPGTEYNVTIQGVKGGRASGPLSAIFTT
B26: SEQ ID NO 174 (designed binder)
chain: MLPAPKNLVVSRVTEDSARLSWTAPDAAFDSFFIGYLEPQPPGEAIVLTVPGSERSYDLTGLKPGTEYKVVIQGVKGGTPSEPLSAIFTT
B27: SEQ ID NO 178 (designed binder)
chain: MLPAPKNLVVSRVTEDSARLSWTAPDAAFDSFDIAYAEPIPRGEAIVLTVPGSERSYDLTGLKPGTEYSVLIHGVKGGRRSVPLSAIFTT
B28: SEQ ID NO 149 (designed binder)
chain: MLPAPKNLVVSRVTEDSARLSWTAPDAAFDSFIIPYAEVRPDGEAIVLTVPGSERSYDLTGLKPGTEYSVLIHGVKGGKLSEPLSAIFTT
B29: SEQ ID NO 150 (designed binder)
chain: MLPAPKNLVVSRVTEDSARLSWTAPDAAFDSFPIAYAEPSPTGEAIVLTVPGSERSYDLTGLKPGTEYSVLIHGVKGGHLSDPLSAIFTT
B30: SEQ ID NO 152 (designed binder)
chain: MLPAPKNLVVSRVTEDSARLSWTAPDAAFDSFFIGYLEPQPPGEAIVLTVPGSERSYDLTGLKPGTEYNVTIQGVKGGFPSSPLSAIFTT
B31: SEQ ID NO 151 (designed binder)
chain: MLPAPKNLVVSRVTEDSARLSWTAPDAAFDSFFIPYAEPSPTGEAIVLTVPGSERSYDLTGLKPGTEYGVVILGVKGGYGSDPLSAIFTT
B32: SEQ ID NO 160 (designed binder)
chain: MLPAPKNLVVSRVTEDSARLSWTAPDAAFDSFNIAYGEWRQHGEAIVLTVPGSERSYDLTGLKPGTEYDVFIDGVKGGNLSWPLSAIFTT
B33: SEQ ID NO 179 (designed binder)
chain: MLPAPKNLVVSRVTEDSARLSWTAPDAAFDSFYIAYAEPRPDGEAIVLTVPGSERSYDLTGLKPGTEYPVPIPGVKGGPGSSPLSAIFTT
B34: SEQ ID NO 170 (designed binder)
chain: MLPAPKNLVVSRVTEDSARLSWTAPDAAFDSFFIGYPEYPATGEAIVLTVPGSERSYDLTGLKPGTEYFVDINGVKGGSLSYPLSAIFTT
B35: SEQ ID NO 165 (designed binder)
chain: MLPARKNLVVSRVTEDSARLSWTAPDAAFDSFFIPYAEPSPTGEAIVLTVPGSERSYDLTGLKPGTEYSVLIHGVKGGHLSDPLSAISTT
B36: SEQ ID NO 156 (designed binder)
chain: MLPAPKNLVVSRVTEDSARLSWTAPDAAFDSFAIEYFENLGIGEAIVLTVPGSERSYDLTGLKPGTEYVVNIYGVKGGWLSSPLSAIFTT
B37: SEQ ID NO 42 (designed binder)
chain: MLPAPKNLVVSRVTEDSARLSWTAPDAAFDSFTIEYYESFYGGEAIVLTVPGSERSYDLTGLKPGTEYYVSIYGVKGGWLSRPLSAIFTT
B38: SEQ ID NO 157 (designed binder)
chain: MLPAPKNLVVSRVTEDSARLSWTAPDAAFDSFAIEYYEYVGNGEAIVLTVPGSERSYDLTGLKPGTEYQVGIYGVKGGYYSRPLSAIFTT
B39: SEQ ID NO 44 (designed binder)
chain: MLPAPKNLVVSRVTEDSARLSWTAPDAAFDSFYIEYYESLPDGEAIVLTVPGSERSYDLTGLKPGTEYAVYIYGVKGGYYSRPLSAIFTT

This test deals with human serum albumin (human) (UniProt P02768). Put plainly: screening ELISA. Background: In an ELISA, binding on a coated surface is turned into a signal by an enzyme label.
Chain of human serum albumin (human) (P02768 25-609 limits assumed): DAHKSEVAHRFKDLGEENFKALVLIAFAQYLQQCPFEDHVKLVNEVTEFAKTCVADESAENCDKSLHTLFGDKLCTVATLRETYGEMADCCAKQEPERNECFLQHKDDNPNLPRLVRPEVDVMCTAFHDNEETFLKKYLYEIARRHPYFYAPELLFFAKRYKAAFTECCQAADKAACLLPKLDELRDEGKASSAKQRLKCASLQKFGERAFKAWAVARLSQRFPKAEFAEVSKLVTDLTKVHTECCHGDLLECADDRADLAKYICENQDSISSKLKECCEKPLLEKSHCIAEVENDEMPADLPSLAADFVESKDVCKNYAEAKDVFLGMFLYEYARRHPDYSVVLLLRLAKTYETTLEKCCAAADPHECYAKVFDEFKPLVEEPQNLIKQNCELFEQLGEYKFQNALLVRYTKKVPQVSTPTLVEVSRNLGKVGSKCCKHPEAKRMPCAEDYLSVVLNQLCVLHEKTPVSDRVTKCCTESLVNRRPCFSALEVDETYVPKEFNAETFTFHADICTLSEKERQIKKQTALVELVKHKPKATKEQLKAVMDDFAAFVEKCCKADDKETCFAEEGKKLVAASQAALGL
B1 returned an HSA of 26000.

The molecule B2 gave an HSA of 1350.

In turn, B3 registered an HSA of 9950.

With B4, the HSA was 1850.

Turning to B5, the HSA was determined as 10700.

Consider B6, for which the HSA was determined as 13100.

Turning to B7, the HSA came to 10100.

As for B8, the HSA was 8160.

B9 gave an HSA of 71200.

On to B10, for which the HSA is 1950.

As to B11, the HSA stood at 3700.

The molecule B12 had an HSA of 33500.

Molecule B13 registered an HSA of 20800.

On to B14, for which the HSA turned out to be 5050.

B15 registered an HSA of 1900.

In the case of B16, the HSA came to 48400.

Consider B17, for which the HSA was 2950.

Regarding B18, the HSA was determined as 4150.

On to B19, for which the HSA was found to be 1600.

B20 returned an HSA of 6000.

In the case of B21, the HSA came out at 3800.

Molecule B22 returned an HSA of 10400.

The molecule B23 had an HSA of 1950.

In the case of B24, the HSA worked out at 5050.

In turn, B25 had an HSA of 2450.

As to B26, the HSA was 2200.

Regarding B27, the HSA turned out to be 2250.

With B28, the HSA came out at 3350.

Molecule B29 registered an HSA of 3500.

Turning to B30, the HSA amounted to 5300.

In turn, B31 showed an HSA of 55000.

For the molecule B32, the HSA came out at 3300.

Regarding B33, the HSA came out at 74700.

Take B34: the HSA came to 16800.

As to B35, the HSA was 65200.

In turn, B36 registered an HSA of 5000.

B37: the HSA stood at 5920.

B38 came in with an HSA of 2450.

B39 displayed an HSA of 3920.
